Reference: article PMC4143292, “An Enzymatic Platform for the Synthesis of Isoprenoid Precursors” (PLoS ONE, 2014)

What was measured:
[1] = substrate: CC(C)(COP(=O)(O)OP(=O)(O)OC[C@H]1O[C@@H](n2cnc3c(N)ncnc32)[C@H](O)[C@@H]1OP(=O)(O)O)[C@@H](O)C(=O)NCCC(=O)NCCS; assay: coupled NADH oxidation, progress curves; assay type: biochemical, Saccharomyces cerevisiae; conditions: acetate 2.0 mM, ATP 4.0 mM, MgCl2 1.0 mM + nucleotide, KCl 50 mM, Hepes pH 8.0, 25 C, apparent
Source text: coupled NADH oxidation, progress curves on ACS (acetyl-CoA synthetase)

purified protein = substrate: CC(=O)O; assay: purified protein; conditions: CoA 2.0 mM, ATP 4.0 mM, MgCl2 1.0 mM + nucleotide, KCl 50 mM, Hepes pH 8.0, 25 C, apparent
[2] = substrate: C[C@@](O)(CCO)CC(=O)O; assay: PK/LDH-coupled NADH oxidation, progress curves; assay type: biochemical, Staphylococcus aureus; conditions: ATP 5.0 mM, MgCl2 1.0 mM + nucleotide, KCl 50 mM, Hepes pH 8.0, 25 C, apparent
Source text: PK/LDH-coupled NADH oxidation, progress curves on MVK (mevalonate kinase)

Row | Protein | Km [1] | kcat [1] | Km (purified protein) | kcat (purified protein) | Km [2] | kcat [2]
1 | ACS (acetyl-CoA synthetase) (Saccharomyces cerevisiae S288C) (protein) MSPSAVQSSKLEEQSSEIDKLKAKMSQSAATAQQKKEHEYEHLTSVKIVPQRPISDRLQPAIATHYSPHLDGLQDYQRLHKESIEDPAKFFGSKATQFLNWSKPFDKVFIPDPKTGRPSFQNNAWFLNGQLNACYNCVDRHALKTPNKKAIIFEGDEPGQGYSITYKELLEEVCQVAQVLTYSMGVRKGDTVAVYMPMVPEAIITLLAISRIGAIHSVVFAGFSSNSLRDRINDGDSKVVITTDESNRGGKVIETKRIVDDALRETPGVRHVLVYRKTNNPSVAFHAPRDLDWATEKKKYKTYYPCTPVDSEDPLFLLYTSGSTGAPKGVQHSTAGYLLGALLTMRYTFDTHQEDVFFTAGDIGWITGHTYVVYGPLLYGCATLVFEGTPAYPNYSRYWDIIDEHKVTQFYVAPTALRLLKRAGDSYIENHSLKSLRCLGSVGEPIAAEVWEWYSEKIGKNEIPIVDTYWQTESGSHLVTPLAGGVTPMKPGSASFPFFGIDAVVLDPNTGEELNTSHAEGVLAVKAAWPSFARTIWKNHDRYLDTYLNPYPGYYFTGDGAAKDKDGYIWILGRVDDVVNVSGHRLSTAEIEAAIIEDPIVAECAVVGFNDDLTGQAVAAFVVLKNKSSWSTATDDELQDIKKHLVFTVRKDIGPFAAPKLIILVDDLPKTRSGKIMRRILRKILAGESDQLGDVSTLSNPGIVRHLIDSVKL | 240 µM | 10 s⁻¹ | 280 µM | 10 s⁻¹ | – | –
2 | MVK (mevalonate kinase) (Staphylococcus aureus) (protein, N-terminal His9-GST tag removed with PreScission protease; expressed in E. coli BL21(DE3)) MTRKGYGESTGKIILIGEHAVTFGEPAIAVPFNAGKIKVLIEALESGNYSSIKSDVYDGMLYDAPDHLKSLVNRFVELNNITEPLAVTIQTNLPPSRGLGSSAAVAVAFVRASYDFLGKSLTKEELIEKANWAEQIAHGKPSGIDTQTIVSGKPVWFQKGQAETLKTLSLDGYMVVIDTGVKGSTRQAVEDVHKLCEDPQYMSHVKHIGKLVLRASDVIEHHNFEALADIFNECHADLKALTVSHDKIEQLMKIGKENGAIAGKLTGAGRGGSMLLLAKDLPTAKNIVKAVEKAGAAHTWIENLGG | – | – | – | – | 27 µM | 19 s⁻¹
